Paper PMC12550018, “High-resolution native electrophoresis in-gel activity assay reveals biological insights of medium-chain fatty acyl-CoA dehydrogenase deficiency” (Scientific Reports, 2025)
Where a chain is given by its changes, count along the chain named. In names and notes the source's numbering stands.

Legend:
[1] = biological target: the molecule itself; assay: native gel or EMSA; high-resolution clear native PAGE (hrCN-PAGE) of purified recombinant protein, 4-16% or 4-20% gradient gels, pH 7.0, cathode buffer with 0.05% sodium deoxycholate and 0.01% n-dodecyl-beta-D-maltoside; Coomassie, FAD fluorescence and acyl-CoA:NBT in-gel activity staining
[2] = biological target: the molecule itself; assay: SEC; Superdex 200 5/150 GL, 2 mg/ml protein, 0.1 ml PBS/min, 5 °C, absorbance at 280 nm; mass by calibration with protein standards

B1: Glutaryl-CoA dehydrogenase (GCDH), human recombinant wild type (enzyme, UniProt Q92947 45-438, looked up)
chain: RPEFDWQDPLVLEEQLTTDEILIRDTFRTYCQERLMPRILLANRNEVFHREIISEMGELGVLGPTIKGYGCAGVSSVAYGLLARELERVDSGYRSAMSVQSSLVMHPIYAYGSEEQRQKYLPQLAKGELLGCFGLTEPNSGSDPSSMETRAHYNSSNKSYTLNGTKTWITNSPMADLFVVWARCEDGCIRGFLLEKGMRGLSAPRIQGKFSLRASATGMIIMDGVEVPEENVLPGASSLGGPFGCLNNARYGIAWGVLGASEFCLHTARQYALDRMQFGVPLARNQLIQKKLADMLTEITLGLHACLQLGRLKDQDKAAPEMVSLLKRNNCGKALDIARQARDMLGGNGISDEYHVIRHAMNLEAVNTYEGTHDIHALILGRAITGIQAFTASK
notes: Glutaryl-CoA dehydrogenase, human, wild type; source: purified by a procedure similar to that for MCAD (E. coli, MBPTrap, TEV digestion, SEC)
[1]
  binding result: binds

B2: Medium-chain specific acyl-CoA dehydrogenase (MCAD), human recombinant wild type (enzyme, UniProt P11310-1 26-421, looked up)
chain: KANRQREPGLGFSFEFTEQQKEFQATARKFAREEIIPVAAEYDKTGEYPVPLIRRAWELGLMNTHIPENCGGLGLGTFDACLISEELAYGCTGVQTAIEGNSLGQMPIIIAGNDQQKKKYLGRMTEEPLMCAYCVTEPGAGSDVAGIKTKAEKKGDEYIINGQKMWITNGGKANWYFLLARSDPDPKAPANKAFTGFIVEADTPGIQIGRKELNMGQRCSDTRGIVFEDVKVPKENVLIGDGAGFKVAMGAFDKTRPVVAAGAVGLAQRALDEATKYALERKTFGKLLVEHQAISFMLAEMAMKVELARMSYQRAAWEVDSGRRNTYYASIAKAFAGDIANQLATDAVQILGGNGFNTEYPVEKLMRDAKIYQIYEGTSQIQRLIVAREHIDKYKN
notes: Medium-chain specific acyl-CoA dehydrogenase (MCAD), human, encoded by ACADM; One FAD per monomer; also called MCAD WT; human recombinant MCAD; not shown: MBP, N-terminal, cleaved
[2]
  stoichiometry N: 4

B3: MCAD variant p.K329E, human recombinant (enzyme, UniProt P11310-1 26-421, looked up)
chain: B2 chain with K304E
notes: MCAD, human, encoded by ACADM, clinically relevant variant p.K329E made by site-directed mutagenesis in pMALc2X; masses fit the mature protein (26-421); The residue number counts on the precursor; also called MCAD K329E; not shown: MBP, N-terminal, cleaved
[2]
  stoichiometry N: 4

B4: MCAD variant p.R206C, human recombinant (enzyme, UniProt P11310-1 26-421, looked up)
chain: B2 chain with R181C
notes: MCAD, human, encoded by ACADM, clinically relevant variant p.R206C made by site-directed mutagenesis in pMALc2X; masses fit the mature protein (26-421); The residue number counts on the precursor; Native MS: only three FAD per tetramer; also called MCAD R206C; not shown: MBP, N-terminal, cleaved
[2]
  stoichiometry N: 4

B5: MCAD variant p.Y67H, human recombinant (enzyme, UniProt P11310-1 26-421, looked up)
chain: B2 chain with Y42H
notes: MCAD, human, encoded by ACADM, clinically relevant variant p.Y67H made by site-directed mutagenesis in pMALc2X; masses fit the mature protein (26-421); The residue number counts on the precursor; also called MCAD Y67H; not shown: MBP, N-terminal, cleaved
[2]
  stoichiometry N: 4
